Four molecules from patent publication US20160046724A1 (Novartis, published 2016) can be followed below.

T1: BCMA (recombinant, form not given) (UniProt Q02223 1-54, limits assumed)
T1 construct: also called BCMA substrate; Bio-BCMA
T1 sequence (looked up): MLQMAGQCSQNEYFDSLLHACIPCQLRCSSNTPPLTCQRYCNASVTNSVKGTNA

B1: BCMA-4NP (sample in the affinity and competition assays) (scFv)
scFv: QVQLVQSGAEVKKPGSSVKVSCKASGGTFSNYWMHWVRQAPGQGLEWMGATYRGHSDTYYNQKFKGRVTITADKSTSTAYMELSSLRSEDTAVYYCARGAIYNGYDVLDNWGQGTLVTVSSGGGGSGGGGSGGGGSGGGGSDIQMTQSPSSLSASVGDRVTITCSASQDISNYLNWYQQKPGKAPKLLIYYTSNLHSGVPSRFSGSGSGTDFTLTISSLQPEDFATYYCQQYRKLPWTFGQGTKLEIKR
notes: also called BCMA-4NP control sample
B2: BCMA-4NP tool CAR (other, not shown: a dimerising Fc or GST)
chain: B1 scFv
notes: Tool CAR with humanized murine anti-BCMA scFv (VH and VL from WO2012/163805); also called 126021
B3: BCMA-15 CAR (other)
chain: EVQLVESGGGLVQPGGSLRLSCAVSGFALSNHGMSWVRRAPGKGLEWVSGIVYSGSTYYAASVKGRFTISRDNSRNTLYLQMNSLRPEDTAIYYCSAHGGESDVWGQGTTVTVSSASGGGGSGGRASGGGGSEIVLTQSPGTLSLSPGERATLSCRASQSIGSSSLAWYQQKPGQAPRLLMYGASSRASGIPDRFSGSGSGTDFTLTISRLEPEDFAVYYCQQYAGSPPFTFGQGTKVEIKTTTPAPRPPTPAPTIASQPLSLRPEACRPAAGGAVHTRGLDFACDIYIWAPLAGTCGVLLLSLVITLYCKRGRKKLLYIFKQPFMRPVQTTQEEDGCSCRFPEEEEGGCELRVKFSRSADAPAYKQGQNQLYNELNLGRREEYDVLDKRRGRDPEMGGKPRRKNPQEGLYNELQKDKMAEAYSEIGMKGERRRGKGHDGLYQGLSTATKDTYDALHMQALPPR
notes: also called 139114 Full CAR; PY43-48LB
B4: BCMA-Fc antigen (Fc fusion)
chain: AGQCSQNEYFDSLLHACIPCQLRCSSNTPPLTCQRYCNASVTNSVKG
notes: Bought reagent; also called BCMA fc fusion protein; recombinant BCMA-Fc; not shown: Fc region

Assay [1] addresses T1, BCMA (recombinant, form not given). In words: affinity assay, 1:1 binding fit; instrument and sample format not stated.
In the assay “BCMA-Fc antigen” the target is B4. The assay can be described thus: flow cytometry of CAR-transduced JNL cells stained with BCMA-Fc antigen. The protocol: Jurkat-NFAT-luciferase (JNL) cells transduced with BCMA CAR constructs were evaluated for activation in response to BCMA-expressing target cell lines. Small-scale viral supernatant samples were generated in HEK293T cells for transduction of JNL cells. On Day 3 following transduction, BCMA CAR-transduced JNL cells were incubated with target cells at an effector-to-target (E:T) ratio of 6:1. Target cell lines were: K562-BCMA (engineered to stably express BCMA), K562 (parental line), and BCMA positive multiple myeloma cell lines, NCI-H929 and RPMI 8226. JNL activation was measured using Bright-Glo substrate (Promega) on Day 4. CAR expression on transduced JNL was assessed on Day 7 with BCMA-Fc antigen and Biotin-Protein L reagent (Table 7).
Background: A flow cytometer gives signals particle by particle.

The target in the next assay is T2, BCMA-10 CAR.
T2 construct: also called 139109 Full CAR; EG63-98LB
In words: CAR-expressing T cells incubated with recombinant BCMA-Fc; staining of CAR+ cells.

Broadly, the Kd is the constant that tells how readily two partners part at equilibrium. Broadly, the koff is the first-order rate constant of dissociation. Usually kon stands for the second-order rate constant of association. As to B1, in assay [1], the Kd was determined as 0.1 nM, the koff came out at 0.000172 s⁻¹ and the kon was 1.58e+06 M⁻¹ s⁻¹.
Take B2: the “% CAR+ (BCMA-Fc detection)” value with BCMA-Fc antigen was 28.3%.
As to B3, the “% CAR+ (BCMA-Fc detection)” value with BCMA-Fc antigen was 36.9%.
In the case of B4, in the assay with BCMA-10 CAR, the binding result was “binds”.
